Assay: yeast display, Sf9 membrane polyspecificity reagent, FACS + sequencing; frameworks hold sequencing errors
How it was run: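 Polyreactivity labels are assigned by the sorting gate from which each nanobody was recovered. The gates were low and high (top ~1%), set on anti-HA fluorescence for expression and streptavidin fluorescence for reagent binding. Before sorting, galactose-induced (36–48 hours) yeast display cells were stained for 1 hour at 4 °C with 10% biotinylated, detergent-solubilized Sf9 membrane reagent.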

| Sequence | polyreactivity (PSR sort gate) |
| --- | --- |
| QVQLVESGGGLVQAGGSLRLSCAASGRIFSAYAMGWYRQAPGKERELVAVISSADSTNYADSVKGRFTITRDNAKNTVYLQINSLKPEDNAVYYCNARGKHRYGFRSHVGNEYWGQGTQVTVSS | low polyreactivity |
| QVQLVESGGGLVQAGGSLRLSSAASGFTFAYYAMGWYRQAPGKERELVAAITRGGGRTFYADSVKGRFTISRDNAKNTVYLQMNSLKPEDTAVYYCAAVKDTTNSRGYGYWGQGTQVTVSS | high polyreactivity |
| QVQLVESGGGLVQAGGSLRLSCAASGIIFYYYAMGWYRQAPGKERELVAAISRSGGITYYPDSVKGRFTISRDNAKNTEYFQMNSLKAEDTAVYYGNALRLVYYHPEDDYWGQGPQVTVSS | high polyreactivity |
| QVQLVESGGGLVQAGGSLRLSCAASGITFRWYAMGWYRQAPGKERELVASISSGGITTYADSVKGRFTISRDNAKNTVYLQMNSLKPEDTAVDYCNAVGHTSIRRALDILDYWGQGTQVTVSS | high polyreactivity |
| QVQLVESGGGLVQAGGSLRLSCAASGRISVFNAMGWYREAPGKERELVAAITSGGSTNYADSVKGRFTISRDNAKNTVYLQMNSLKPEDTAVYYCNADVYHSHEPHYDYWGQGTQVTVSS | low polyreactivity |
| QVQLVESGGGLVQAGGSLRLSCAASGRTFGRYAKGWSRQAPGKERELVAAISYSTDSTYYADSVKGRFTISRDNAKNTDYLQMNSLKPEYTAVYYCATDSVNVGSYVGDKHDYWGHGTQVTVSS | low polyreactivity |
| QVQLVESGGGLVQAGGSLRLSCAASGSTFYWNVMGWYRQAPGKERELVAAINRSDGSTYYADSVKGRFTISRDNAKNTVYLQMNSLKPEDTAVYFCNAVTKHPQSVPYAYGYWGQGTQVTVSS | high polyreactivity |
| QVQLVESGGGLVQAGGSLRLSCAASGSTFIANAMGWYRQAPGKERELVAAISASGDSTYYADSVKGRFTISRDNAKNTVYLQMNSLKPEDTAVYYCAADTSVHRHDYWGQGTQVTVSS | low polyreactivity |
| QVQLLESVGGLVQAGGSLRISCAASGIIFKSYAMGWYRQAPGKERELVAAISSGGSTYYVDSVKGRFTISRDNAKNTVYLQMNSLKPEDTAVYYCAAYGKYQGYGHWGQGTQVTVSS | high polyreactivity |
| QVQLVESGGGLVQAGGSLRLSCAASGSIVVNNGMGWYRQAPGKERELVATISERGGGTYYADSVKGRFTISRDNAKNTVYLQMNSLKPEDTAVYYCAARVPRFYFVPLYYWGQGTQVTVSS | low polyreactivity |
| QVQLVESGGGLVQAGGSLRLSCAASGFTFSSNAMGWYRQAPGKQRELVAAISKGGGSTYYADSVKGRFTISRDNAKNTGYLQMNSLKPEDTAVYYCAKEYDTYAYTYPYNYWGQGTQVTVSS | high polyreactivity |
| QVQLVESGGGLVQAGGSLRLSCAASGSILWQYAIGRYRQAPGKEMELVAAINQRGGSTYYADSVKGRFTISRDYAKNTVYLQMNSLKPEDTAVYYCNTYPTRTYPSYYYWGQGTQVTVSS | high polyreactivity |
| PVQLVESGGGLVQAGGSLRLSCAASGITIISYAMVWYRQAPGKERELVAAITKSGGRTYYADSVKGRFTISRDNAKNTVYLQMNSLKPEDTAVYYCAAYHLRDNRIGGGYWGQGTQVTVSS | high polyreactivity |
| QVQLVESGGGLVQAGGSLRLSCAASGRTFRRNAMGWYRQAPGKERELVATITGGGRTNYADSVKGRFTISRDNAKNTVYLQMNSLKPEDTAVYYCAAAAGSYNTGYGYWGQGTQVTVSS | high polyreactivity |
| QVQLLESGGGLVQAGGSLRLRCAASGSIFISYAMGWYRQAPGKERELVAAISIRGTRTYYADSVKGRFTISRDNAKNTVYLHMNCLKPEDTAVYYCAADASYTEGMDYWGQGTQGTVSS | high polyreactivity |
| QVQLVESGGGLVQAGGSLRLSCAASGRIFWANAMGWYRQAPGKERELVAAISKSGDSTYYADSVKGRFTISRDTAKNTVYLEMSWLKPEDTAVYSCAADEYASRFSFKYDYWGQGTQVTVSS | high polyreactivity |
| QVQLVESGGGLVQAGGSLRLSCAASGSTLVVNGMGWYRQAPGKERELVASISSDGSTNYADSVKGRFTISRDNAKNTVYLQMNSLKPEDTAVYYCAADEGTGQASLSSNLYDYWGQGTQVTVSS | low polyreactivity |
| QVQLVESGGGLVQAGGSLRLSCAASGSTLSQYAMGLYRQAPGKERELVAAITKSGVRTYYPDSVKGRFTISRDNAKNTVYLQMNSLKREDTAVYYCAKATTKYIAPYDYWGQGTQVTVSS | high polyreactivity |
| QVQLVESGGGLVQAGGSLRLSCAASGRTFASYTMGWYRQAPGKERELVAAITRGGSTNYADSVKGRFTISRDNAKNTVYLQMNSLKPEDTAVYYCAARFSRSFGYNYWGQGTQVTVSS | high polyreactivity |
| QVQLVESGGGLVQAGGSLRLICAASGYTFAFYAMGWYRQAPGKEREFVASINWNGSSTYADSVKGRFTISRDNAKNTVYLQMNSLKPEDTAVYYCNADYNRNSVQFSLYDYWGQGTQVTVSS | low polyreactivity |
| QVHLVESGGGLVQAGGSLRLSCAASGFIFLHYAMGWYRQAPGKERELVAAINKSGGSTYYADSVKGRFTSSRDNAMYTDYLQMNSLKPEDTAVYYCNAVYYWFIGDYWGQGTQVTVSS | high polyreactivity |
| QVQLVESGGGLVQAGGSLRLSCAASGGIFYSYAMGWYRQAPGKERELVAALSRGSRTYYADSVKGRFTISRDNAKNTVYLQMNSLKPEDTAVYYCAAYIVGSYRDGYWGQGTQVSVSS | high polyreactivity |
